The nanobody polyreactivity screen of Harvey et al. (2022)

Assay: yeast display, Sf9 membrane polyspecificity reagent, FACS + sequencing; frameworks hold sequencing errors
Summary of the method: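 Galactose-induced (36–48 hours) yeast carrying a synthetic nanobody display library were exposed to 10% biotinylated, detergent-solubilized Sf9 membrane reagent at 4 °C for 1 hour. FACS followed streptavidin microbead enrichment, using low and high (top ~1%) gates for expression (anti-HA) and reagent binding (streptavidin). Colony PCR, MiSeq 2 × 250 sequencing and CDR-length filtering followed. Labels for polyreactivity reflect the gate of origin.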

Sequence	polyreactivity (PSR sort gate)
QVQLVESGGGLVQAGGSLRLSCAASGSTFWYYAMGWYRQAPGKERELVAAITSVDSTYYADSVKGRFTISRDNANNTVYLQMNSLKPEDTAVYYCAADLPWEDGYYFYSGYTEYDYWGQGTQVTVSS	low polyreactivity
QVQLVESGGGLVQAGGSLRLSCAASGSTFWYYAMGWYRQAPGKERELVASITYSGGSTYYADSVKGRFTISRDNAKNTVYLQMNSLKPEDTAVYYCAAEGYYSNYHFWGQGTQVTVSS	low polyreactivity
QVQLVESGGGLVQAGGSLRLSCAASGSTFWYYVMGWYRQAPGKERELVAAISIVGSTYYADSVKGRFTISRDNAKNTVYLQMNSLKPEDTAVYYFNAGYFRGSNAIKVRLTYDHWGQGTQVTVSS	low polyreactivity
QVQLVESGGGLVQAGGSLRLSCAASGSTFYANAMGWYRQAPGKERELVAAISRSGGRTYYADSVKGRFTISRDNAKNTVFLQMNSLKPEDTAVYYCAKAYHHSEFDYWGQGTQVTVSS	high polyreactivity
QVQLVESGGGLVQAGGSLRLSCAASGSTFYANAMGWYRQAPGKERELVADISFSGASTFYADSVKGRFTISRDNAKNTVYLQMNSLKPEDTAVYYCATDNPSVVGFDYWGQGTQVTVSS	low polyreactivity
QVQLVESGGGLVQAGGSLRLSCAASGSTFYANDMGWYRQAPGKERELVASISLGDGSTYYADSVKGRFTISRDNAKNTVYLQMNSLKPEDTAVYYCAAGFYVWYWGFNYWGQGSQVTVSS	low polyreactivity
QVQLVESGGGLVQAGGSLRLSCAASGSTFYAYAMGWYRQAPGKERELVAAIDSGGSTYYADSVKGRFTISRDNAKNTVYLQMNSLKPDDTAVYYCAVRHRYTRAYWGRDYWGQGTQVTVSS	low polyreactivity
QVQLVESGGGLVQAGGSLRLSCAASGSTFYAYAMGWYRQAPGKERELVAAISSSGGSTYYADSVKGRFTISRDNAKNTVYLQMNSLKPEDTAVYYCAAYDSVQKYWILGFDYWGQGTQVTVSS	low polyreactivity
QVQLVESGGGLVQAGGSLRLSCAASGSTFYDYAMGWYRQAPGKERELVAAINWSSDTTYYADSVKGRFTISRDNAKNTVYLQMNSLKPEDTAVYYCATDSAYRGYDYWGQGTQVTVSS	low polyreactivity
QVQLVESGGGLVQAGGSLRLSCAASGSTFYDYAMGWYRQAPGKERELVASISISGGSTYADSVKRRFTISRDNAKNTVYLQMNSLKPEDTAVYYCNAKNYSWDDYDWVPDYEYWGQGTQVTVSS	low polyreactivity
QVQLVESGGGLVQAGGSLRLSCAASGSTFYDYAMGWYRQAPGKERELVASISSGGGTYYADSVKGRFTISRDNAKNTVYLQMNSLKPEDTAVYYCADDDYSSYVYGTFDRYDYWGQGTQVTLSS	low polyreactivity
QVQLVESGGGLVQAGGSLRLSCAASGSTFYDYVMGWYRKAPGKERELVAAITGDGTTDYADSVKGRFTISRDNAKNTVYLQMNSLKPEDTAVYYCNADISLDYDYWGQGTQVTVSS	low polyreactivity
QVQLVESGGGLVQAGGSLRLSCAASGSTFYDYVMGWYRQAPGKERELVAAISRTGASTYYADSVKGRFTISRDNAKNTVYLQMNSLKPEDTAVYYCAADSDTVRYYYWGQGTQVTVSS	high polyreactivity
QVQLVESGGGLVQAGGSLRLSCAASGSTFYEKAMGWYRQAPGKEREFVAAITQSGGSTYYADSVKGRFTISRDNAKNTVYLQMNSLKPEDTAVYYCAKVWPKHYRSLGYGYWGQGTQVTVSS	low polyreactivity
QVQLVESGGGLVQAGGSLRLSCAASGSTFYEYAMGWYRPAPGKERELVAAISSGGSTYYADSVKGRFTISRDNAKNTVYLQMNSLKPEDTAVYYCNSDCQTYGGEYDYWGQGTQVTVSS	low polyreactivity
QVQLVESGGGLVQAGGSLRLSCAASGSTFYEYAMGWYRQAPGKERELVAAIDERGGNTYYADSVKGRFTISRDNAKNTVYLQMNSLKPEVTAVYYCAADAYPFYQSYYPFEYWGQGTQVTVSS	low polyreactivity

Sequence	polyreactivity (PSR sort gate)
QVQLVESGGGLVQAGGSLRLSCAASGSTFYFYAKGWYRQAPGRELEWVAAISYSGGSTYYADSVKGRFTISRDNAKNTVYLQMNSLTPEDTAVYSCAADAAFYYDADDEYDYWGQGTQVTVSS	low polyreactivity
QVQLVESGGGLVQAGGSLRLSCAASGSTFYFYDMGWYRQAPGKERELVATIDDGGGSTYYADSVKGRFTISRDNAKNTVYLQMNSLKPEDTAVYYCAADYFVYPDDWYDYWGQGTQVTVSS	low polyreactivity
QVQLVESGGGLVQAGGSLRLSCAASGSTFYGNAMGWSRQAPGKERELVAAIRWRGGRTYYADSVKGRFTISRDNAKNTVYLQMNSLKPEDTAVYYCNALPGVSHTQYDRVGYWGQGTQVTVSS	high polyreactivity
QVQLVESGGGLVQAGGSLRLSCAASGSTFYGNPLGWYRKAPGKERELVAAIRRSGGRTYYADSVKGRFTISRDNAKNTVYLQMNSLKPEDTAVYYCAAAKYSGAYRSTMNYWGQGTQVTVSS	high polyreactivity
QVQLVESGGGLVQAGGSLRLSCAASGSTFYGYALGWYRQAPGKERELVAGITSAGSTYYADSVKGRFTISRDNAKNTVYLQMNSLKPEDTAVYYCAAVYRRWIWRERYYYCGQGTQVTVSS	high polyreactivity
QVQLVESGGGLVQAGGSLRLSCAASGSTFYGYAMGWYRPAPGKERELVAAITRSGGSTYYADSVKGRFTISRDNAKNTVYLQMNSLKPEDTEVYYCNKYGYKGGVGYDYWGQGTQVTVSS	high polyreactivity
QVQLVESGGGLVQAGGSLRLSCAASGSTFYGYAMGWYRQAPGKERELVAAISSSGTRTYYADSVKGRFTISRDNAKNTVYLQMNSLKPEDTAVYYCATDVRVGHIRDYDYWGQGTQVTVSS	high polyreactivity
QVQLVESGGGLVQAGGSLRLSCAASGSTFYGYAMGWYRQAPGKERELVASITTRGGRTNYADSVKGRFTISRDNAKNTVYLQMNSLKPEDTAVYYCATYSYVTRYARWGEYDYWGQGTQVTVSS	high polyreactivity
QVQLVESGGGLVQAGGSLRLSCAASGSTFYGYAMGWYRQPPGKERELVAAITIGGRTYYADSVKGRFTISRDNAKNTVYLQMNSLKPEDTAVYYCAAAILRTVPELGSRRTYYYWGQGTQVTVSS	high polyreactivity
QVQLVESGGGLVQAGGSLRLSCAASGSTFYHNAMGWYRQAPGKERELVAAITSGTSTYYADSVKGRFTISRDNAKNTVYLQMNSLKPEDTAVYDCAADSPWGGGYFVLYNYWGQGTQVTVSS	low polyreactivity
QVQLVESGGGLVQAGGSLRLSCAASGSTFYHNVMGWYRQAPGKERELVASIDTGDSTNYADSVKGRFTISRDNAKKTVYLQMNSLKPEDTAVYYCNAVWNTFISGRSYDYWGQGTQVTVSS	low polyreactivity
QVQLVESGGGLVQAGGSLRLSCAASGSTFYHYAMGWYRQAPGKERELVASISHSGGRTFYADSVKGRFTISRDNAKNTVYLQMNSLKPEDTAVYYCAADWRTLTEYGYKGYYWGLGTQVTVSS	low polyreactivity
QVQLVESGGGLVQAGGSLRLSCAASGSTFYINAMGWSRQAPGKEREFVAAIDWGGGTTYYADSVKGRFTISRDNAMNTVYLQMNRLKPEDTAVYYCAAERNYWSTQYYYWGQGTQVTVSS	high polyreactivity
QVQLVESGGGLVQAGGSLRLSCAASGSTFYINAMRWYRPAPGKERELVAAISWSGGSTYYADSVKGRFTISRDNAKNTVYLQMNSLKPEDTAVYYCAADWYLGWSLDYDYWGQGTQVTVSS	low polyreactivity
QVQLVESGGGLVQAGGSLRLSCAASGSTFYIYAMGWYIQAPGKERELVAAISTTDGTTYYADSVKGRFTISRDNAKNTVYLQMNSLKPEDTAVYYCAAEWFGSVQPAYDYWGQGTQVTVSS	high polyreactivity
